According to the supplement of paper PMC10567573:

B1: ACSBG2 (parent)
chain: TPMTIPEFFRESVNRFGTYPALAS

Variants of: B1
Assay: protein stability index of a GFP-peptide fusion (GPS, HEK-293T) (PSI 1-6); higher = more stable
Details: c terminus: a fixed tail appended
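Note: lentivirally expressed fusions sorted by FACS into six bins by GFP to DsRed ratio, PSI derived from sequencing read proportions per bin multiplied by bin number.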

| Variant | protein stability index |
| --- | --- |
| R10W | 1.97 |
| R10I | 1.51 |
| R10N | 3.3 |
| R10T | 2.37 |
| R10F | 2.04 |
| R10S | 2.45 |
| R10Q | 2.62 |
| R10G | 2.37 |
| R10L | 1.45 |
| R10A | 2.61 |
| R10V | 1.54 |
| R10H | 2.15 |
| R10E | 2.43 |
| R10M | 1.63 |
| R10C | 1.5 |
| R10K | 2.55 |
| R10P | 3.03 |
| R10Y | 1.86 |
| R10D | 2.75 |
| A21F | 1.65 |
| A21R | 2.16 |
| A21P | 2.32 |
| A21N | 2.19 |
| A21S | 2.31 |

| Variant | protein stability index |
| --- | --- |
| A21E | 2.69 |
| A21Q | 2.5 |
| A21L | 1.77 |
| A21T | 2.02 |
| A21V | 1.78 |
| A21I | 2.23 |
| A21W | 2.53 |
| A21G | 2.47 |
| A21C | 1.88 |
| A21M | 2.26 |
| A21Y | 2.17 |
| A21D | 2.84 |
| A21K | 2.87 |
| A21H | 2.32 |
| S12V | 2.19 |
| S12W | 1.39 |
| S12N | 2.25 |
| S12Q | 2.65 |
| S12L | 2.01 |
| S12F | 1.66 |
| S12H | 2.27 |
| S12Y | 1.86 |
| S12T | 2.02 |
| S12R | 2.25 |

| Variant | protein stability index |
| --- | --- |
| S12A | 1.97 |
| S12P | 2.47 |
| S12K | 2.17 |
| S12C | 1.53 |
| S12D | 2.96 |
| S12M | 2.64 |
| S12E | 2.69 |
| S12I | 1.76 |
| S12G | 2.48 |
| L22M | 1.88 |
| L22H | 2.61 |
| L22F | 2.63 |
| L22P | 2.63 |
| L22D | 3.19 |
| L22E | 3.37 |
| L22I | 2.34 |
| L22K | 3.08 |
| L22A | 2.51 |
| L22C | 2.54 |
| L22N | 3.45 |
| L22G | 3 |
| F8R | 2.39 |
| F8S | 2.9 |
| F8P | 2.72 |

| Variant | protein stability index |
| --- | --- |
| F8M | 2.35 |
| F8C | 2.7 |
| F8T | 2.8 |
| F8Q | 2.65 |
| F8A | 2.99 |
| F8V | 2.14 |
| F8H | 2.45 |
| F8D | 3.19 |
| F8I | 2.42 |
| F8E | 2.35 |
| F8L | 2.66 |
| F8K | 3.02 |
| F8W | 2.09 |
| F8Y | 2.4 |
| F8N | 3.19 |
| F8G | 3.02 |
| E7L | 2.15 |
| E7A | 2.26 |
| E7M | 2.63 |
| E7P | 2.24 |
| E7V | 1.9 |
| E7Q | 2.02 |
| E7H | 2.94 |
| E7I | 2.65 |

| Variant | protein stability index |
| --- | --- |
| E7C | 2.19 |
| E7T | 2.19 |
| E7G | 2.14 |
| E7W | 1.74 |
| E7F | 2.93 |
| E7N | 2.63 |
| E7Y | 1.52 |
| E7R | 2.19 |
| E7D | 2.13 |
| E7S | 2 |
| E7K | 2.25 |
| V13I | 2.56 |
| V13Y | 2.64 |
| V13D | 2.79 |
| V13A | 2.42 |
| V13F | 1.97 |
| V13M | 2.41 |
| V13L | 2.09 |
| V13Q | 2.28 |
| V13K | 2.31 |
| V13G | 2.2 |
| V13N | 2.84 |
| V13C | 3.09 |
| V13H | 2.59 |

| Variant | protein stability index |
| --- | --- |
| V13T | 2.98 |
| V13E | 2.78 |
| V13W | 1.76 |
| V13P | 2.43 |
| V13S | 2.44 |
| V13R | 2.37 |
| Y19E | 3.37 |
| Y19H | 2.77 |
| Y19F | 2.52 |
| Y19D | 3.44 |
| Y19G | 2.73 |
| Y19I | 2.78 |
| Y19Q | 2.91 |
| Y19P | 2.87 |
| Y19S | 2.54 |
| Y19R | 3.17 |
| Y19T | 2.76 |
| Y19L | 2.38 |
| Y19N | 2.84 |
| Y19V | 2.71 |
| Y19A | 2.82 |
| Y19K | 2.8 |
| Y19W | 2.38 |
| Y19M | 2.77 |

| Variant | protein stability index |
| --- | --- |
| Y19C | 2.19 |
| I5T | 2.67 |
| I5W | 2.18 |
| I5Y | 2.05 |
| I5K | 2.19 |
| I5F | 2.23 |
| I5D | 2.7 |
| I5M | 2.37 |
| I5Q | 3.5 |
| I5H | 2.39 |
| I5C | 2.58 |
| I5P | 2.5 |
| I5V | 2.03 |
| I5S | 2.51 |
| I5R | 2.97 |
| I5N | 2.39 |
| I5G | 2.84 |
| I5E | 2.84 |
| I5L | 1.97 |
| P20T | 1.48 |
| P20S | 2.04 |
| P20K | 2.39 |
| P20D | 2.67 |
| P20I | 2.34 |

| Variant | protein stability index |
| --- | --- |
| P20E | 2.4 |
| P20M | 2.87 |
| P20Q | 1.71 |
| P20N | 2.11 |
| P20G | 2.3 |
| P20C | 1.97 |
| P20F | 2.49 |
| P20W | 2.11 |
| P20V | 2.41 |
| P20H | 1.92 |
| P20R | 2.18 |
| P20L | 2.63 |
| P20A | 1.89 |
| P20Y | 1.56 |
| R15F | 2.25 |
| R15V | 2.41 |
| R15A | 2.41 |
| R15H | 2.14 |
| R15E | 2.62 |
| R15Q | 2.69 |
| R15Y | 1.99 |
| R15D | 2.78 |
| R15S | 2.64 |
| R15G | 1.97 |

| Variant | protein stability index |
| --- | --- |
| R15C | 2.12 |
| R15T | 2.57 |
| R15P | 2.04 |
| R15M | 1.8 |
| R15I | 2.24 |
| R15W | 1.52 |
| R15N | 2.5 |
| R15L | 2.38 |
| R15K | 2.1 |
| G17C | 1.43 |
| G17H | 2.28 |
| G17S | 2.62 |
| G17N | 2.34 |
| G17L | 1.95 |
| G17I | 1.97 |
| G17W | 2.12 |
| G17E | 2.35 |
| G17F | 1.8 |
| G17T | 1.91 |
| G17Q | 1.86 |
| G17A | 1.78 |
| G17R | 2.42 |
| G17D | 2.76 |
| G17P | 2.22 |

| Variant | protein stability index |
| --- | --- |
| G17V | 2.1 |
| G17K | 2.27 |
| G17M | 2.17 |
| G17Y | 2.04 |
| P6H | 2.38 |
| P6T | 1.88 |
| P6R | 2.08 |
| P6V | 1.41 |
| P6K | 2.15 |
| P6W | 2.67 |
| P6D | 1.76 |
| P6N | 2.05 |
| P6C | 1.89 |
| P6I | 3 |
| P6A | 1.8 |
| P6F | 4.36 |
| P6S | 1.94 |
| P6E | 2.15 |
| P6G | 2.08 |
| P6M | 3.03 |
| P6L | 3.27 |
| P6Q | 1.93 |
| P6Y | 1.99 |
| E11N | 1.82 |

| Variant | protein stability index |
| --- | --- |
| E11K | 2.09 |
| E11L | 1.48 |
| E11S | 2.15 |
| E11R | 1.99 |
| E11T | 2.17 |
| E11I | 1.69 |
| E11C | 1.95 |
| E11M | 2.76 |
| E11V | 1.99 |
| E11H | 1.84 |
| E11W | 2.08 |
| E11Q | 1.5 |
| E11F | 2.47 |
| E11Y | 1.68 |
| E11A | 1.95 |
| E11P | 1.72 |
| E11G | 1.89 |
| E11D | 2.58 |
| T18I | 2.02 |
| T18N | 2.35 |
| T18D | 2.9 |
| T18R | 2.17 |
| T18W | 1.49 |
| T18G | 2.17 |

| Variant | protein stability index |
| --- | --- |
| T18Y | 2.09 |
| T18K | 2.77 |
| T18E | 3.05 |
| T18L | 2.31 |
| T18V | 2.29 |
| T18C | 2.35 |
| T18Q | 2.02 |
| T18H | 2.1 |
| T18A | 1.89 |
| T18F | 1.9 |
| T18M | 1.74 |
| T18P | 2.08 |
| T18S | 2.06 |
| F9A | 2.42 |
| F9T | 3.4 |
| F9Y | 2.71 |
| F9P | 2.79 |
| F9D | 3.36 |
| F9M | 2.45 |
| F9C | 2.17 |
| F9Q | 2.37 |
| F9I | 2.27 |
| F9L | 1.76 |
| F9V | 2.36 |

| Variant | protein stability index |
| --- | --- |
| F9G | 3.05 |
| F9H | 2.98 |
| F9N | 3.16 |
| F9S | 2.71 |
| F9K | 2.67 |
| F9R | 2.88 |
| F9W | 1.92 |
| F9E | 3.41 |
| F16G | 2.48 |
| F16T | 2.87 |
| F16Y | 2.22 |
| F16V | 2.64 |
| F16E | 3.37 |
| F16S | 2.71 |
| F16H | 3.03 |
| F16L | 2.11 |
| F16M | 3.39 |
| F16P | 2.92 |
| F16W | 2.16 |
| F16R | 2.86 |
| F16A | 3.51 |
| F16I | 2.36 |
| F16D | 3.62 |
| F16K | 3.22 |

| Variant | protein stability index |
| --- | --- |
| F16C | 2.54 |
| F16N | 3.41 |
| F16Q | 2.8 |
| N14D | 2.65 |
| N14W | 1.74 |
| N14I | 1.83 |
| N14C | 1.83 |
| N14Q | 2.24 |
| N14H | 2.05 |
| N14R | 2.01 |
| N14F | 1.66 |
| N14Y | 1.88 |
| N14V | 1.93 |
| N14P | 2.66 |
| N14L | 1.62 |
| N14S | 2.51 |
| N14E | 2.81 |
| N14G | 2.18 |
| N14A | 2.51 |
| N14K | 2.54 |
| N14T | 2.23 |
| N14M | 2.39 |
